According to the supplement of paper PMC7877785:
± gives the uncertainty stated by the source.

Assay: self-splicing fitness, log relative to wild type (ln ratio); higher = more splicing; Tetrahymena group I intron in knt gene, E. coli kanamycin selection, DiMSum; sequences stand for … in CUCUCU…GGAGGGAAAAGUUAUCAGGCAUGCACCUGGUAGCUAGUCUUUAAACCAAUAGAUUGCAUCGGUUUAAAAGGCAAGACCGUCAAAUUGCGGGAAAGGGGUCAACAGCCGUUCAGUACCAAGUCUCAGGGGAAACUUUGAGAUGGCCUUGCAAAGGGUAUGGUAAUAAGCUGACGGACAUGGUCCUAACCACGCAGCCAAGUCCUAAGUCAACAGAUCUUCUGUUGAUAUGGAUGCAGUUCACAGACUAAAUGUCGGUCGGGGAAGAUGUAUUCUUCUCAUAAGAUAUAGUCGGACCUCUCCUUAAUGGGAGCUAGCGGAUGAAGUGAUGCAACACUGGAGCCGCUGGGAACUAAUUUGUAUGCGAAAGUAUAUUGAUUAGUUUUGGAGUACUCGUGGUCG
In short: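 DiMSum derived fitness as the error-weighted combination of fold changes across replicates, kanamycin versus no kanamycin, normalised to wild type. E. coli BL21(DE3) held the library, which randomised all eight P1ex-region intron nucleotides within the knt kanamycin-resistance gene on pET-22b(+). Six replicate transformations grew overnight at 37°C or 30°C on LB agar with or without 25 μg/mL kanamycin, also containing 100 μg/mL carbenicillin, 50 μM IPTG and 0.2% rhamnose, and pooled colonies were amplicon-sequenced on an Illumina HiSeq 2500.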

Sequence | self-splicing fitness (ln) (30 °C) | self-splicing fitness (ln) (37 °C)
GUCAAGCAAUAUUACGACGA | -3.52 ± 0.29 | -1.88 ± 0.18
GUCAAGCAAUAUUACGACUC | -1.73 ± 0.15 | -0.881 ± 0.15
GUCAAGCAAUAUUACGACUU | -3.18 ± 0.099 | -1.86 ± 0.1
GUCAAGCAAUAUUACGAGGG | -4.08 ± 0.42 | -3.38 ± 0.3
GUCAAGCAAUAUUACGAUCC | -1.48 ± 0.18 | -0.693 ± 0.21
GUCAAGCAAUAUUACGAUUA | -1.04 ± 0.1 | -0.259 ± 0.068
GUCAAGCAAUAUUACGCACC |  | -0.99 ± 0.47
GUCAAGCAAUAUUACGCAGC |  | -3.49 ± 0.35
GUCAAGCAAUAUUACGCCAG | -4.54 ± 0.28 | -3.95 ± 0.33
GUCAAGCAAUAUUACGCCUA | -0.294 ± 0.12 | 0.0798 ± 0.093
GUCAAGCAAUAUUACGCUGG | -4.08 ± 0.28 | -3.72 ± 0.29
GUCAAGCAAUAUUACGCUUG | -4.27 ± 0.36 | -2.06 ± 0.23
GUCAAGCAAUAUUACGGAAA | -2.28 ± 0.14 | -1.72 ± 0.12
GUCAAGCAAUAUUACGGCAG |  | -2.86 ± 0.29
GUCAAGCAAUAUUACGGGAG | -3.23 ± 0.1 | -1.07 ± 0.081
GUCAAGCAAUAUUACGGUCG | -3.23 ± 0.14 | -1.26 ± 0.13
GUCAAGCAAUAUUACGUACA | -3.13 ± 0.14 | -1.73 ± 0.098
GUCAAGCAAUAUUACGUCGA | -3.6 ± 0.42 | -4.19 ± 0.46
GUCAAGCAAUAUUACGUCUA | -1.94 ± 0.1 | -0.679 ± 0.079
GUCAAGCAAUAUUACGUGCA | -1.58 ± 0.11 | -0.243 ± 0.1
GUCAAGCAAUAUUACGUUAC | -3.02 ± 0.17 | -2.96 ± 0.17
GUCAAGCAAUAUUACGUUGG | -4.53 ± 0.31 | -3.51 ± 0.3
GUCAAGCAAUAUUACGUUGU | -3.69 ± 0.13 | -2.76 ± 0.13
GUCAAGCAAUAUUACGUUUU | -2.8 ± 0.11 | -0.976 ± 0.1
GUCCAGCAAUAUUACGAAAG | -3.37 ± 0.21 | -0.318 ± 0.17

Sequence | self-splicing fitness (ln) (30 °C) | self-splicing fitness (ln) (37 °C)
GUCCAGCAAUAUUACGAAAU | -0.587 ± 0.1 | -0.0182 ± 0.12
GUCCAGCAAUAUUACGAAGU | -0.504 ± 0.074 | 0.0552 ± 0.11
GUCCAGCAAUAUUACGACUC | -0.116 ± 0.087 | -0.335 ± 0.1
GUCCAGCAAUAUUACGAGAU | -2.92 ± 0.13 | -1.32 ± 0.11
GUCCAGCAAUAUUACGAUGG | -3.74 ± 0.16 | -3.37 ± 0.25
GUCCAGCAAUAUUACGCCGA | -1.78 ± 0.22 | -2.03 ± 0.14
GUCCAGCAAUAUUACGCGAA | -1.21 ± 0.11 | 0.483 ± 0.11
GUCCAGCAAUAUUACGCGGC | -2.27 ± 0.26 | -2.6 ± 0.48
GUCCAGCAAUAUUACGCUAG | -1.18 ± 0.076 | -0.908 ± 0.1
GUCCAGCAAUAUUACGCUUG | -1.57 ± 0.079 | -1.31 ± 0.09
GUCCAGCAAUAUUACGGCUU | -0.269 ± 0.068 | 0.16 ± 0.087
GUCCAGCAAUAUUACGGGCA | -2.25 ± 0.21 | -1.85 ± 0.18
GUCCAGCAAUAUUACGGGCU | -2.54 ± 0.31 | 
GUCCAGCAAUAUUACGGGGG | -2.01 ± 0.1 | -1.55 ± 0.14
GUCCAGCAAUAUUACGGUCC | -3.66 ± 0.35 | -2.68 ± 0.29
GUCCAGCAAUAUUACGGUUG | -1 ± 0.067 | -0.214 ± 0.091
GUCCAGCAAUAUUACGUACG | -1.58 ± 0.07 | -1.14 ± 0.1
GUCCAGCAAUAUUACGUCUA | -0.899 ± 0.11 | -0.668 ± 0.12
GUCCAGCAAUAUUACGUUCG | -1.26 ± 0.055 | -0.749 ± 0.079
GUCGAGCAAUAUUACGAAAA |  | -2.58 ± 0.41
GUCGAGCAAUAUUACGAAGG | -3.61 ± 0.47 | 
GUCGAGCAAUAUUACGAAUG | -4.06 ± 0.35 | -0.777 ± 0.2
GUCGAGCAAUAUUACGAAUU | -3.05 ± 0.32 | -0.878 ± 0.19
GUCGAGCAAUAUUACGACAA | -1.97 ± 0.24 | -2.85 ± 0.4
GUCGAGCAAUAUUACGAGAU |  | -2.45 ± 0.39

Sequence | self-splicing fitness (ln) (30 °C) | self-splicing fitness (ln) (37 °C)
GUCGAGCAAUAUUACGAGGA |  | -2.44 ± 0.49
GUCGAGCAAUAUUACGAUAC | -0.265 ± 0.28 | -0.381 ± 0.24
GUCGAGCAAUAUUACGCAAG | -3.6 ± 0.27 | -2.71 ± 0.3
GUCGAGCAAUAUUACGCACA | -1.76 ± 0.21 | -0.707 ± 0.18
GUCGAGCAAUAUUACGCGCA | -0.713 ± 0.26 | -1.17 ± 0.21
GUCGAGCAAUAUUACGCGUA | -1.26 ± 0.14 | -0.913 ± 0.11
GUCGAGCAAUAUUACGGAUG | -1.27 ± 0.095 | -0.69 ± 0.13
GUCGAGCAAUAUUACGGUAU | -1.34 ± 0.084 | -0.615 ± 0.12
GUCGAGCAAUAUUACGGUCC | -3.17 ± 0.22 | -0.877 ± 0.17
GUCGAGCAAUAUUACGGUUC | -2.27 ± 0.14 | -1.73 ± 0.17
GUCGAGCAAUAUUACGUAAA | -2.73 ± 0.29 | -0.959 ± 0.27
GUCGAGCAAUAUUACGUACG | -2.29 ± 0.26 | -2.44 ± 0.41
GUCGAGCAAUAUUACGUACU | -2.83 ± 0.29 | -0.966 ± 0.21
GUCGAGCAAUAUUACGUAUC | -0.209 ± 0.13 | -1.42 ± 0.15
GUCGAGCAAUAUUACGUCCG | -4 ± 0.43 | -0.959 ± 0.3
GUCGAGCAAUAUUACGUCGG |  | -2.34 ± 0.22
GUCGAGCAAUAUUACGUCUG | -3.5 ± 0.43 | -2.51 ± 0.3
GUCGAGCAAUAUUACGUUAC | -3.38 ± 0.22 | -1.49 ± 0.27
GUCGAGCAAUAUUACGUUUA | -2.37 ± 0.15 | -1.87 ± 0.15
GUCUAGCAAUAUUACGAAAU | 0.0935 ± 0.11 | 0.4 ± 0.1
GUCUAGCAAUAUUACGAACG | -1.83 ± 0.2 | -1.13 ± 0.23
GUCUAGCAAUAUUACGACAC | -0.746 ± 0.13 | -0.011 ± 0.11
GUCUAGCAAUAUUACGCGUC | -2.18 ± 0.099 | -0.0852 ± 0.1
GUCUAGCAAUAUUACGCUCU | -0.178 ± 0.13 | 1.05 ± 0.15
GUCUAGCAAUAUUACGCUUG | -1.22 ± 0.11 | -0.705 ± 0.11

Sequence | self-splicing fitness (ln) (30 °C) | self-splicing fitness (ln) (37 °C)
GUCUAGCAAUAUUACGGAAG | -0.159 ± 0.09 | 0.218 ± 0.12
GUCUAGCAAUAUUACGGAUU | -1.75 ± 0.089 | -0.0906 ± 0.085
GUCUAGCAAUAUUACGGCAU | -0.166 ± 0.092 | 0.88 ± 0.11
GUCUAGCAAUAUUACGGCUU | -0.982 ± 0.12 | 0.12 ± 0.14
GUCUAGCAAUAUUACGGGGA | -2.08 ± 0.25 | -3.16 ± 0.32
GUCUAGCAAUAUUACGGGUG | -1.28 ± 0.05 | -0.553 ± 0.058
GUCUAGCAAUAUUACGGUAC | -0.985 ± 0.14 | -0.625 ± 0.17
GUCUAGCAAUAUUACGGUGC | 0.0594 ± 0.14 | -0.142 ± 0.15
GUCUAGCAAUAUUACGGUUU | -1.42 ± 0.077 | -0.192 ± 0.095
GUCUAGCAAUAUUACGUAAC | -0.708 ± 0.13 | -0.195 ± 0.13
GUCUAGCAAUAUUACGUACA | -0.922 ± 0.1 | -0.376 ± 0.1
GUCUAGCAAUAUUACGUAUU | -0.645 ± 0.086 | -0.635 ± 0.095
GUCUAGCAAUAUUACGUUGG | -3.01 ± 0.15 | -1.86 ± 0.14
GUGAAGCAAUAUUACGAACC | -3.05 ± 0.29 | 
GUGAAGCAAUAUUACGACGG | -0.531 ± 0.12 | -0.418 ± 0.23
GUGAAGCAAUAUUACGACUG | -1.37 ± 0.09 | -0.924 ± 0.14
GUGAAGCAAUAUUACGAGAC | -2.62 ± 0.19 | -0.955 ± 0.12
GUGAAGCAAUAUUACGAGCG | -0.702 ± 0.087 | 0.396 ± 0.12
GUGAAGCAAUAUUACGAUAC | -0.501 ± 0.11 | -0.461 ± 0.14
GUGAAGCAAUAUUACGAUAG | -2.11 ± 0.19 | -0.681 ± 0.18
GUGAAGCAAUAUUACGCAGG | -1.88 ± 0.1 | -0.654 ± 0.1
GUGAAGCAAUAUUACGCCCC | -0.362 ± 0.33 | 
GUGAAGCAAUAUUACGCCCG | -0.347 ± 0.39 | -0.026 ± 0.42
